Changes are numbered by the printed parent chain. Names and notes keep the numbering of the source.
B1: CsHPPDm-F372A-02: Cucumis sativus HPPD mutant F372A, SEQ ID NO: 120 (protein)
chain: MGKEADFPRAPSEATDGGATASQSEFELQGFDNFIRTNPKSDRFKVKRFHHIEFWCTDATNVARRFSWGLGMQIVAKSDLSTGNMTHASYLLRSGHLCFLFTAPYSPSIAAAQNLTPASTASIPSFDHSVCRSFSGTHGFGARAIALEVEDAEIAFRTSVAHGAKPSCPPIVLENRAVLSEVHLYGDVVLRYISYKNPVSGDNGENKPDEWFLPKFEAMEETASFPLDFGIRRLDHAVGNVPELGPAVSYLKGFTGFHEFAEFTAEDVGTSESGLNSMVLANNEEMVLLPINEPVFGTKRKSQIQTYLEHNEGAGVQHLALMSEDIFRTLREMRKRSSVGGFEFMPSPPPTYYKNLKSRAGDVLTDEQIKECEELGILVDKDDQGTLLQIATKPVGDRPTIFIEIIQRLGCMMKDEEGKAFQKGGCGGFGKGNFSELFKSIEEYEKTLEAKRVSE
modifications: CsHPPDm-F372A Amino Acid Sequence
B2: StHPPD-02: native Solanum tuberosum HPPD, SEQ ID NO: 123 (protein, listed as Solanum tuberosum)
chain: MGKQAATATATATATADDQQLPADIEDKYKLVGFNNFVRTNPRSDLFNVKRFHHIEFWCGDATNTARRFSWGLGLPIAAKSDLSTGNSVHASYLLRSSSSQLQFLFTAPYSPAISTPSSSSIPTFSVSSHRSFTETHGLGVRAIALEVENSRLAFSTCVSHGAKPVSEPVILNDEVVISEVHLYGDVVLRFVSFLKDSNRFVFLPGFELVEGAQLDYGIRRLDHAVGNVPQLGPVVEYIKSFTGFHEFAEFTAEDVGTAESGLNSVVLANNDETVLFPLNEPVYGTKRKSQIQTYLEHNEGAGVQHLALVTEDIFRTLREMRKRSGIGGFEFMPSPPPTYYKNLKSRAGDILSDEQIKECEELGILVDRDDQGTLLQIFTKPVGDRPTIFLEIIQRIGCMLQNAEGELYQKGGCGGFGKGNFSELFKSIEEYEKTLEAKQNTQVAIA
modifications: StHPPD Amino Acid Sequence
B3: StHPPDm-F372A-02: Solanum tuberosum HPPD mutant F372A, SEQ ID NO: 126 (protein)
chain: B2 chain with F379A
modifications: StHPPDm-F372A Amino Acid Sequence

system: Arabidopsis thaliana T1 plants; assay: Topramezone tolerance of transgenic Arabidopsis thaliana T1 plants (pesticide damage grade by bleached leaf area, score, resistance evaluation); assay type: in vivo; settings: HPPDs from different species; number of plants (of 16) in this grade; topramezone 25 g ai/ha (1x), 7 DAT
Method in brief: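 Eighteen days after sowing, wild-type and HPPD-transgenic T1 Arabidopsis receive a topramezone spray at 1×, 2× or 4× field rate (25–100 g ai/ha) or water. Seven days later each plant is graded by its proportion of bleached leaf area.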

Row | Molecule | Classification and statistics of pesticide damage grade Grade 0 | Classification and statistics of pesticide damage grade Grade 1 | Classification and statistics of pesticide damage grade Grade 2 | Classification and statistics of pesticide damage grade Grade 3
1 | B1 | 0 | 0 | 16 | 0
2 | B2 | 0 | 0 | 0 | 16
3 | B3 | 4 | 12 | 0 | 0

same assay, conditions: HPPDs from different species; number of plants (of 16) in this grade; topramezone 100 g ai/ha (4x), 7 DAT

Row | Molecule | Classification and statistics of pesticide damage grade Grade 0 | Classification and statistics of pesticide damage grade Grade 1 | Classification and statistics of pesticide damage grade Grade 2 | Classification and statistics of pesticide damage grade Grade 3
4 | B1 | 0 | 0 | 0 | 16
5 | B2 | 0 | 0 | 0 | 16
6 | B3 | 0 | 1 | 4 | 11

same assay, conditions: HPPDs from different species; score for pesticide damage 0-100; topramezone 25 g ai/ha (1x), 7 DAT

Row | Molecule | Scores
7 | B1 | 67
8 | B2 | 100
9 | B3 | 25

same assay, conditions: HPPDs from different species; score for pesticide damage 0-100; topramezone 100 g ai/ha (4x), 7 DAT

Row | Molecule | Scores
10 | B1 | 100
11 | B2 | 100
12 | B3 | 88

same assay, conditions: HPPDs from different species; topramezone 25 g ai/ha (1x), 7 DAT

Row | Molecule | Resistance evaluation
13 | B1 | poorly resistant (poorly resistant plants (scores 34-67))
14 | B2 | non-resistant (non-resistant plants (scores 68-100))
15 | B3 | moderately resistant (moderately resistant plants (scores 16-33))

same assay, conditions: HPPDs from different species; topramezone 100 g ai/ha (4x), 7 DAT

Row | Molecule | Resistance evaluation
16 | B1 | non-resistant (non-resistant plants (scores 68-100))
17 | B2 | non-resistant (non-resistant plants (scores 68-100))
18 | B3 | non-resistant (non-resistant plants (scores 68-100))
